{"source": "paper PMC5446404", "about": "“Fortilin binds IRE1α and prevents ER stress from signaling apoptotic cell death” (Nature Communications, 2017)", "binders": {"B1": {"name": "recombinant human fortilin (Strep-tag II), biotinylated (natural protein, UniProt P13693 1-172, looked up)", "chain": "MIIYRDLISHDEMFSDIYKIREIADGLCLEVEGKMVSRTEGNIDDSLIGGNASAEGPEGEGTESTVITGVDIVMNHHLQETSFTKEAYKKYIKDYMKSIKGKLEEQRPERVKPFMTGAAEQIKHILANFKNYQFFIGENMNPDGMVALLDYREDGVTPYMIFFKDGLEMEKC", "modifications": "biotinylated (sites not given)", "notes": "fortilin (translationally controlled tumor protein), human, described as a 172-amino-acid polypeptide; cDNA encoding human fortilin cloned into pESG-IBA5; Biotinylated for BLI; also called translationally controlled tumor protein; Strep-tagged fortilin; source: 293T cells stably expressing it, purified (Strep-Tactin-Superflow resin)"}}, "key": {"GST-IRE1α-C (aa 468-977)": {"target": "GST-IRE1α-C (aa 468-977) (human, UniProt O75460 468-977)", "sequence (O75460 468-977)": "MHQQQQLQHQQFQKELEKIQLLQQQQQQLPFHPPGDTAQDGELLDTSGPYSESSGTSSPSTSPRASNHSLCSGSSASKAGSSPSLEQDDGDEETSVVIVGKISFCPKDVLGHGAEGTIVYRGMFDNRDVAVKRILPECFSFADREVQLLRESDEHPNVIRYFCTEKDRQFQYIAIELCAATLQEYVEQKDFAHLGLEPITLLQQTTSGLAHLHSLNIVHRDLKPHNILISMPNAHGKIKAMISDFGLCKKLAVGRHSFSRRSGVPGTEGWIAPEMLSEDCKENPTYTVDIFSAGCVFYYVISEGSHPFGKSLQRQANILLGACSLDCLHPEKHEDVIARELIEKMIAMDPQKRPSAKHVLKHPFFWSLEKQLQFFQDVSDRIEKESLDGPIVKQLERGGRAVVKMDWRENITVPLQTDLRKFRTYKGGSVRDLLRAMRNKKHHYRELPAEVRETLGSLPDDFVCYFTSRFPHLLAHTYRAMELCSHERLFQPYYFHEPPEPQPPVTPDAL", "test": "cell-based or functional assay"}, "bovine serum albumin": {"target": "T1, bovine serum albumin (bovine, UniProt P02769 25-607)", "T1 construct": "serum albumin, bovine; negative control of the biolayer interferometry; also called BSA; source: bought: Sigma-Aldrich", "T1 sequence (P02769 25-607)": "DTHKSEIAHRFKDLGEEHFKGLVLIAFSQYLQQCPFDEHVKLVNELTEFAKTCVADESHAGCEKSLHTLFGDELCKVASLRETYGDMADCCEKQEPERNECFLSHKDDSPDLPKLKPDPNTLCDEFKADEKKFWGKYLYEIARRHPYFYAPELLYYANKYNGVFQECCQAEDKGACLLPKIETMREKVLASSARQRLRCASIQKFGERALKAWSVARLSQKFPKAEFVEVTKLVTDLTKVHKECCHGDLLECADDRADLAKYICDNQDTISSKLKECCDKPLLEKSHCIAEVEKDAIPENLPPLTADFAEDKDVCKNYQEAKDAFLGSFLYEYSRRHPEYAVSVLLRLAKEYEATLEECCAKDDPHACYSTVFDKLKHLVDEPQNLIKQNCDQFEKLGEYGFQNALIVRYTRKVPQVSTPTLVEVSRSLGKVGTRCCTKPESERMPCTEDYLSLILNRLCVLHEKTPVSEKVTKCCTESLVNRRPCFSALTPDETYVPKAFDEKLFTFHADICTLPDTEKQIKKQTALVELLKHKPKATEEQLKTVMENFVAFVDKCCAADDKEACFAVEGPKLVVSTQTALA", "test": "BLI; BLItz (ForteBio); biotinylated fortilin immobilised on streptavidin-coated biosensors (25 μg/mL, 600 s), buffer exchange in PBS; analyte at various concentrations for 180 s, dissociation in PBS for 300 s; three independent experiments", "conditions": "both partners purified"}}, "data": [{"binder": "B1", "values": [{"measurement": "in vitro IRE1α kinase activity: incorporation of γ-33P from [γ-33P]ATP into myelin basic protein; IC50 of fortilin", "setting": "GST-IRE1α-C (aa 468-977)", "result": 0.77, "unit": "µM"}, {"measurement": "Kd", "setting": "bovine serum albumin", "result": 1050, "unit": "µM"}]}]}
